From patent publication US6645934B1, “Peptide with radio protective effect” (Eberhard-Karls-Universität Tübingen, priority 1997, dated 2003)
Bridges are numbered along the chain shown (N, C = ends).

What was measured:
human skin fibroblasts = test: Clonogenic assay with human skin fibroblasts under UV-B irradiation; format: cell-based; settings: UV-B radiation at 100 J/m^2, FIG. 6; for effect on clonogenic survival, further increase over that of complete BBI / effect on clonogenic survival compared with complete BBI: peptides 80 μM vs BBI 10 μM; for increase in clonogenic survival of the human skin fibroblasts compared to the untreated cells: BBI 10 μM, peptides 80 μM
Method: (§1) Normal human fibroblasts were cultivated in Dulbecco's Modified Eagles Medium (DMEM) with 10% fetal calf serum under standard conditions. At each cell passage the number of cells was counted, and the cells were seed with a density of 2×10^4/cm^2 when subcultures were set up.
(§2) For the clonogenic assay, secondary fibroblasts were trypsinated with 0.05% trypsin and 0.1 EDTA, and seed at a cell density of 50 cells per cm^2 into six-well tissue culture dishes. The cells were cultivated with 2 ml DMEM with 20% fetal calf serum per well.
(§3) After 24 hours the medium was removed and the cells were incubated for 16 hours either in additive-free control mediums (“0” in the Figures) or in medium that contained 10 μM of either BBI or a modified BBI form or a BBI fragment. The nonapeptides and heptapeptide according to the present invention (see Example 3) were used at a concentration of 80 μM.
(§4) The cells were then cultivated for a further eight days in BBI-free culture medium in order to allow colonies to form. The cells were then fixed, stained, and counted; in the Figures, “K” indicates the absolute number of clones counted.
(§5) A clone is a colony or a cell cluster resulting from the division of one cell during the eight-day cultivation period. The number of clones corresponds to the degree to which the human fibroblasts survived the irradiation. This will therefore also be referred to hereinafter as the “clonogenic survival” of the cells. If many cells die when the cells are irradiated, then only a few clones will form after eight days; if many cells survive, then many clones may be counted after eight days of cultivation. The clonogenic survival of the cells after irradiation is thus a direct indication of the radioprotective effect of the BBI product being used.
Once again a clonogenic assay was performed, using complete BBI or the four peptides P1 through P4.
In this case irradiation was performed with UV-B radiation at 100 J/m^2.

[1] = biological target: TLCK-treated chymotrypsin (Bos taurus, UniProt P00766); test: Protease inhibition test, chymotrypsin; format: biochemical
Method: (§6) A batch containing 50 μl TLCK-treated chymotrypsin (0.1 mg/ml) was incubated for 10 minutes in 12.5% DMSO and 87.5% PBS with 50 μl of a solution having BBI (BBI), reduced BBI (BBI-R), or reduced and alkylated BBI (BBI-A) together with 50 μl PBS and 50 μl of the chymotrypsin substrate acetyl-A-A-P-F-pNa (0.5 mg/ml, of Bachem Heidelberg, Germany). The colored reaction product was detected at 405 nm in a spectrophotometer.
A batch without BBI (0) was run as control, and its measured value was taken as 100% chymotrypsin activity (% CH). The blank value with buffer alone is labeled “-” and indicates the cuvette and buffer solution background.

TPCK-treated trypsin = biological target: T1, TPCK-treated trypsin (Bos taurus, UniProt P00760); test: Protease inhibition test, trypsin; format: biochemical; settings: FIG. 8
T1 sequence (P00760 24-246): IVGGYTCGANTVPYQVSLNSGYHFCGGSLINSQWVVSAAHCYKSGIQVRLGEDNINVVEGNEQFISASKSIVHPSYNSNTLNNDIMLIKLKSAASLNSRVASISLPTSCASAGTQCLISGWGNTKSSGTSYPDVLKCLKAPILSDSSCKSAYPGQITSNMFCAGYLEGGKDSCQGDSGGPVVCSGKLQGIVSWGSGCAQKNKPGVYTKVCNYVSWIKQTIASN
Method: as §6
If inhibition of the protease trypsin (see Example 4, FIG. 8) was to be determined, TPCK-treated trypsin (0.1 mg/ml) and the peptide CBZ-R-pNa (1 mg/ml) as substrate were used, and the test was otherwise performed as described.

Normal human fibroblasts [2] = test: Clonogenic assay with normal human fibroblasts under ionizing radiation; format: cell-based; settings: for radioprotective effect compared with complete BBI and the other peptides (clonogenic assay): single dose of 4 Gy, peptides 80 μM, complete BBI 10 μM, FIG. 5; for influence on survival of the cells without irradiation (clonogenic assay): 0 Gy, 10 μM, 16 h incubation, FIG. 1
Method: The examination of the radioprotective effect of BBI and of modified forms of BBI was performed as a so-called clonogenic assay, which is described, for example, in K. Dittmann et al., Radiotherapy and Oncology 34 (1995), pages 137-143, and is explained briefly below.
as §1, §2, §3
This was followed by irradiation with ionizing radiation, the energy dose being either 2 or 4 gray (Gy). This energy dose corresponds to the entire converted radiation energy given in mass unit Joule/kg=(gray). A 6 MeV linear accelerator (Mevatron, Siemens) was used for irradiation.
as §4, §5

[3] = biological target: chymotrypsin (TLCK-treated); test: cell-based or functional assay
trypsin (TPCK-treated) = test: cell-based or functional assay
Normal human fibroblasts [4] = settings: publication of Dittmann et al.; cited from earlier work
[5] = FIG. 2, control without BBI = 100% chymotrypsin activity

Molecule: Peptide P2: heptapeptide SEQ ID NO: 3, no cysteine residues, linear; acetyl and amide protective groups (Ac-ALSYPAQ-NH2)
- effect on clonogenic survival, further increase over that of complete BBI (human skin fibroblasts): 20%
- inhibition of chymotrypsin activity ([1]; 0.1 mM, FIG. 7): only a few percent or not at all
- inhibition of the activity of trypsin (TPCK-treated trypsin; 0.1 mM): no effect on the activity of trypsin

Molecule: Peptide P4: nonapeptide SEQ ID NO: 2 (serine to valine exchange), terminal cysteines not crosslinked; acetyl and amide protective groups (Ac-CALVYPAQC-NH2; cysteine pairing not given here)
- increase in clonogenic survival of the human skin fibroblasts compared to the untreated cells (human skin fibroblasts): significantly increased
- effect on clonogenic survival compared with complete BBI (human skin fibroblasts): less of an effect than complete BBI
- inhibition of chymotrypsin activity ([1]; 0.1 mM, FIG. 7): only a few percent or not at all
- inhibition of the activity of trypsin (TPCK-treated trypsin; 0.1 mM): no effect on the activity of trypsin

Molecule: Peptide P3: nonapeptide SEQ ID NO: 1, terminal cysteine residues not crosslinked; acetyl and amide protective groups (Ac-CALSYPAQC-NH2; cysteine pairing not given here)
- radioprotective effect compared with complete BBI and the other peptides (clonogenic assay) (Normal human fibroblasts [2]): even more pronounced radioprotective effect than peptides P2 (heptapeptide) and P4
- effect on clonogenic survival, further increase over that of complete BBI (human skin fibroblasts): 20%
- inhibition of chymotrypsin activity ([1]; 0.1 mM, FIG. 7): only a few percent or not at all
- inhibition of the activity of trypsin (TPCK-treated trypsin; 0.1 mM): no effect on the activity of trypsin

Molecule: Peptide P1: nonapeptide SEQ ID NO: 1, terminal cysteine residues crosslinked with a disulfide bond; acetyl and amide protective groups (Ac-CALSYPAQC-NH2; disulfide 1-9; SMILES CC(=O)N[C@H]1CSSC[C@@H](C(N)=O)NC(=O)[C@H](CCC(N)=O)NC(=O)[C@H](C)NC(=O)[C@@H]2CCCN2C(=O)[C@H](Cc2ccc(O)cc2)NC(=O)[C@H](CO)NC(=O)[C@H](CC(C)C)NC(=O)[C@H](C)NC1=O)
- radioprotective effect compared with complete BBI and the other peptides (clonogenic assay) (Normal human fibroblasts [2]): even more pronounced radioprotective effect than peptides P2 (heptapeptide) and P4
- effect on clonogenic survival compared with complete BBI (human skin fibroblasts): just as pronounced an effect as the addition of complete BBI
- inhibition of chymotrypsin activity ([1]; 0.1 mM, FIG. 7): only a few percent or not at all
- inhibition of the activity of trypsin (TPCK-treated trypsin; 0.1 mM): no effect on the activity of trypsin

B1: Bowman-Birk Protease Inhibitor (BBI), complete (protein, soybean, UniProt P01055 40-110, looked up)
chain: DDESSKPCCDQCACTKSNPPQCRCSDMRLNSCHSACKSCICALSYPAQCFCVDITDFCYEPCKPSEDDKEN
- inhibition of chymotrypsin activity (substrate acetyl-A-A-P-F-pNa, 405 nm) [3]: 80%
- inhibition of chymotrypsin activity at 0.05 mM BBI [3]: 80%
- inhibition of chymotrypsin activity at 0.1 mM BBI [3]: 90%
- inhibition of trypsin activity at 0.05 mM BBI (substrate CBZ-R-pNa) (trypsin (TPCK-treated)): > 90%
- inhibition of trypsin activity at 0.1 mM BBI (substrate CBZ-R-pNa) (trypsin (TPCK-treated)): > 90%

B2: reduced BBI (BBI-R) (protein, soybean, UniProt P01055 40-110, looked up)
chain: B1 chain
modifications: pretreated with dithiothreitol (DTT) so that all the disulfide bonds in the BBI were cleaved (cysteines reduced)
- inhibition of chymotrypsin activity (substrate acetyl-A-A-P-F-pNa, 405 nm) [3]: 30%

B3: BBI-A: BBI first reduced, cysteine residues then alkylated with iodoacetamide to prevent reoxidation (protein)
chain: B1 chain
- influence on survival of the cells without irradiation (clonogenic assay) (Normal human fibroblasts [2]): does not influence survival of the cells within experimental error
- inhibition of chymotrypsin activity [1, 5]: no longer capable of inhibiting chymotrypsin activity

B4: BBI-R: complete BBI pretreated with the reducing agent dithiothreitol (DTT), so that all the disulfide bonds were cleaved (protein)
chain: B1 chain
modifications: cyclised or stapled
notes: complete BBI pretreated with the reducing agent dithiothreitol (DTT), so that all the disulfide bonds were cleaved
- influence on survival of the cells without irradiation (clonogenic assay) (Normal human fibroblasts [2]): does not influence survival of the cells within experimental error
- inhibition of chymotrypsin activity [1, 5]: about 30%

B5: Bowman-Birk Protease Inhibitor (protein)
chain: B1 chain
notes: complete BBI (from Sigma Biochemicals)
- influence on survival of the cells without irradiation (clonogenic assay) (Normal human fibroblasts [2]): does not influence survival of the cells within experimental error
- increase in clonogenic survival of the human skin fibroblasts compared to the untreated cells (human skin fibroblasts): approximately 40%
- inhibition of chymotrypsin activity ([1]; 0.05 mM, FIG. 7): 80%
- inhibition of chymotrypsin activity ([1]; 0.1 mM, FIG. 7): 90%
- inhibition of chymotrypsin activity [1, 5]: 80%
- inhibition of the activity of trypsin (TPCK-treated trypsin; 0.05 mM): more than 90%
- inhibition of the activity of trypsin (TPCK-treated trypsin; 0.1 mM): more than 90%
- radiation-induced mortality of cultivated human fibroblasts (Normal human fibroblasts [4]): decreases the radiation-induced mortality
